In the supplement of paper PMC10567573:

B1: SCARA5 (parent)
chain: VTEDLRLKDWEHSIALRNISLAKG

Variants of: B1
Experiment: protein stability index of a GFP-peptide fusion (GPS, HEK-293T) (PSI 1-6); higher = more stable
Settings: c terminus: a fixed tail appended
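Note: lentivirally expressed fusions sorted by FACS into six bins by GFP to DsRed ratio, PSI derived from sequencing read proportions per bin multiplied by bin number.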

Variant	protein stability index
VTEDLRLKDWEHPIALRNISLAKG [S13P]	3.25
VTEDLRLKDWEHQIALRNISLAKG [S13Q]	3.68
VTEDLRLKDWEHRIALRNISLAKG [S13R]	3.4
VTEDLRLKDWEHTIALRNISLAKG [S13T]	3.41
VTEDLRLKDWEHVIALRNISLAKG [S13V]	3.37
VTEDLRLKDWEHWIALRNISLAKG [S13W]	2.57
VTEDLRLKDWEHYIALRNISLAKG [S13Y]	2.88
VTEDLRLKDWEHSAALRNISLAKG [I14A]	4.04
VTEDLRLKDWEHSCALRNISLAKG [I14C]	3.26
VTEDLRLKDWEHSDALRNISLAKG [I14D]	4.26
VTEDLRLKDWEHSEALRNISLAKG [I14E]	4.03
VTEDLRLKDWEHSFALRNISLAKG [I14F]	3.21
VTEDLRLKDWEHSGALRNISLAKG [I14G]	4.17
VTEDLRLKDWEHSHALRNISLAKG [I14H]	3.47
VTEDLRLKDWEHSKALRNISLAKG [I14K]	3.86
VTEDLRLKDWEHSLALRNISLAKG [I14L]	3.3
VTEDLRLKDWEHSMALRNISLAKG [I14M]	3.4
VTEDLRLKDWEHSNALRNISLAKG [I14N]	3.96
VTEDLRLKDWEHSPALRNISLAKG [I14P]	4.76
VTEDLRLKDWEHSQALRNISLAKG [I14Q]	3.91
VTEDLRLKDWEHSRALRNISLAKG [I14R]	3.64
VTEDLRLKDWEHSSALRNISLAKG [I14S]	4.22
VTEDLRLKDWEHSTALRNISLAKG [I14T]	3.59
VTEDLRLKDWEHSVALRNISLAKG [I14V]	3.75

Variant	protein stability index
VTEDLRLKDWEHSWALRNISLAKG [I14W]	3.29
VTEDLRLKDWEHSYALRNISLAKG [I14Y]	3.37
VTEDLRLKDWEHSICLRNISLAKG [A15C]	3.13
VTEDLRLKDWEHSIDLRNISLAKG [A15D]	4.2
VTEDLRLKDWEHSIELRNISLAKG [A15E]	3.14
VTEDLRLKDWEHSIFLRNISLAKG [A15F]	2.86
VTEDLRLKDWEHSIGLRNISLAKG [A15G]	3.58
VTEDLRLKDWEHSIHLRNISLAKG [A15H]	3.37
VTEDLRLKDWEHSIILRNISLAKG [A15I]	2.59
VTEDLRLKDWEHSIKLRNISLAKG [A15K]	2.98
VTEDLRLKDWEHSILLRNISLAKG [A15L]	2.63
VTEDLRLKDWEHSIMLRNISLAKG [A15M]	3.27
VTEDLRLKDWEHSINLRNISLAKG [A15N]	3.42
VTEDLRLKDWEHSIPLRNISLAKG [A15P]	3.54
VTEDLRLKDWEHSIQLRNISLAKG [A15Q]	3.59
VTEDLRLKDWEHSIRLRNISLAKG [A15R]	2.74
VTEDLRLKDWEHSISLRNISLAKG [A15S]	3.66
VTEDLRLKDWEHSITLRNISLAKG [A15T]	3.64
VTEDLRLKDWEHSIVLRNISLAKG [A15V]	2.34
VTEDLRLKDWEHSIWLRNISLAKG [A15W]	2.46
VTEDLRLKDWEHSIYLRNISLAKG [A15Y]	2.39
VTEDLRLKDWEHSIAARNISLAKG [L16A]	3.71
VTEDLRLKDWEHSIACRNISLAKG [L16C]	3.37
VTEDLRLKDWEHSIADRNISLAKG [L16D]	4.32

Variant	protein stability index
VTEDLRLKDWEHSIAERNISLAKG [L16E]	3.73
VTEDLRLKDWEHSIAFRNISLAKG [L16F]	3.1
VTEDLRLKDWEHSIAGRNISLAKG [L16G]	4
VTEDLRLKDWEHSIAHRNISLAKG [L16H]	3.45
VTEDLRLKDWEHSIAIRNISLAKG [L16I]	3.42
VTEDLRLKDWEHSIAKRNISLAKG [L16K]	3.77
VTEDLRLKDWEHSIAMRNISLAKG [L16M]	3.45
VTEDLRLKDWEHSIANRNISLAKG [L16N]	4.12
VTEDLRLKDWEHSIAPRNISLAKG [L16P]	4.52
VTEDLRLKDWEHSIAQRNISLAKG [L16Q]	4.06
VTEDLRLKDWEHSIARRNISLAKG [L16R]	3.4
VTEDLRLKDWEHSIASRNISLAKG [L16S]	4.21
VTEDLRLKDWEHSIATRNISLAKG [L16T]	3.81
VTEDLRLKDWEHSIAVRNISLAKG [L16V]	3.98
VTEDLRLKDWEHSIAWRNISLAKG [L16W]	2.91
VTEDLRLKDWEHSIAYRNISLAKG [L16Y]	3.14
VTEDLRLKDWEHSIALANISLAKG [R17A]	3.5
VTEDLRLKDWEHSIALCNISLAKG [R17C]	2.84
VTEDLRLKDWEHSIALDNISLAKG [R17D]	3.94
VTEDLRLKDWEHSIALENISLAKG [R17E]	4.06
VTEDLRLKDWEHSIALFNISLAKG [R17F]	2.49
VTEDLRLKDWEHSIALGNISLAKG [R17G]	3.62
VTEDLRLKDWEHSIALHNISLAKG [R17H]	3.41
VTEDLRLKDWEHSIALINISLAKG [R17I]	2.07

Variant	protein stability index
VTEDLRLKDWEHSIALKNISLAKG [R17K]	3.38
VTEDLRLKDWEHSIALLNISLAKG [R17L]	1.8
VTEDLRLKDWEHSIALMNISLAKG [R17M]	2.56
VTEDLRLKDWEHSIALNNISLAKG [R17N]	3.53
VTEDLRLKDWEHSIALPNISLAKG [R17P]	3.56
VTEDLRLKDWEHSIALQNISLAKG [R17Q]	3.21
VTEDLRLKDWEHSIALSNISLAKG [R17S]	3.77
VTEDLRLKDWEHSIALTNISLAKG [R17T]	3.19
VTEDLRLKDWEHSIALVNISLAKG [R17V]	1.56
VTEDLRLKDWEHSIALWNISLAKG [R17W]	2.26
VTEDLRLKDWEHSIALYNISLAKG [R17Y]	2.58
VTEDLRLKDWEHSIALRAISLAKG [N18A]	2.25
VTEDLRLKDWEHSIALRCISLAKG [N18C]	2.17
VTEDLRLKDWEHSIALRDISLAKG [N18D]	3.81
VTEDLRLKDWEHSIALREISLAKG [N18E]	3.68
VTEDLRLKDWEHSIALRFISLAKG [N18F]	1.86
VTEDLRLKDWEHSIALRGISLAKG [N18G]	3.6
VTEDLRLKDWEHSIALRHISLAKG [N18H]	2.96
VTEDLRLKDWEHSIALRIISLAKG [N18I]	2.47
VTEDLRLKDWEHSIALRKISLAKG [N18K]	3.5
VTEDLRLKDWEHSIALRLISLAKG [N18L]	1.35
VTEDLRLKDWEHSIALRMISLAKG [N18M]	1.81
VTEDLRLKDWEHSIALRPISLAKG [N18P]	2.81
VTEDLRLKDWEHSIALRQISLAKG [N18Q]	2.93

Variant	protein stability index
VTEDLRLKDWEHSIALRRISLAKG [N18R]	3.15
VTEDLRLKDWEHSIALRSISLAKG [N18S]	3.37
VTEDLRLKDWEHSIALRTISLAKG [N18T]	3.58
VTEDLRLKDWEHSIALRVISLAKG [N18V]	1.76
VTEDLRLKDWEHSIALRWISLAKG [N18W]	2.47
VTEDLRLKDWEHSIALRYISLAKG [N18Y]	1.95
VTEDLRLKDWEHSIALRNASLAKG [I19A]	3.71
VTEDLRLKDWEHSIALRNCSLAKG [I19C]	4.27
VTEDLRLKDWEHSIALRNDSLAKG [I19D]	4.54
VTEDLRLKDWEHSIALRNESLAKG [I19E]	4.44
VTEDLRLKDWEHSIALRNFSLAKG [I19F]	3
VTEDLRLKDWEHSIALRNGSLAKG [I19G]	3.99
VTEDLRLKDWEHSIALRNHSLAKG [I19H]	3.69
VTEDLRLKDWEHSIALRNKSLAKG [I19K]	4.39
VTEDLRLKDWEHSIALRNLSLAKG [I19L]	3.05
VTEDLRLKDWEHSIALRNMSLAKG [I19M]	3.3
VTEDLRLKDWEHSIALRNNSLAKG [I19N]	3.77
VTEDLRLKDWEHSIALRNPSLAKG [I19P]	3.9
VTEDLRLKDWEHSIALRNQSLAKG [I19Q]	4.44
VTEDLRLKDWEHSIALRNRSLAKG [I19R]	4.25
VTEDLRLKDWEHSIALRNSSLAKG [I19S]	3.98
VTEDLRLKDWEHSIALRNTSLAKG [I19T]	3.93
VTEDLRLKDWEHSIALRNVSLAKG [I19V]	3.74
VTEDLRLKDWEHSIALRNWSLAKG [I19W]	2.62

Variant	protein stability index
VTEDLRLKDWEHSIALRNYSLAKG [I19Y]	3.22
VTEDLRLKDWEHSIALRNIALAKG [S20A]	3.81
VTEDLRLKDWEHSIALRNICLAKG [S20C]	3.21
VTEDLRLKDWEHSIALRNIDLAKG [S20D]	3.67
VTEDLRLKDWEHSIALRNIELAKG [S20E]	2.36
VTEDLRLKDWEHSIALRNIFLAKG [S20F]	3.17
VTEDLRLKDWEHSIALRNIGLAKG [S20G]	3.66
VTEDLRLKDWEHSIALRNIHLAKG [S20H]	3.04
VTEDLRLKDWEHSIALRNIILAKG [S20I]	2.15
VTEDLRLKDWEHSIALRNIKLAKG [S20K]	2.94
VTEDLRLKDWEHSIALRNILLAKG [S20L]	3.37
VTEDLRLKDWEHSIALRNIMLAKG [S20M]	3.24
VTEDLRLKDWEHSIALRNINLAKG [S20N]	3.54
VTEDLRLKDWEHSIALRNIPLAKG [S20P]	3.91
VTEDLRLKDWEHSIALRNIQLAKG [S20Q]	3.54
VTEDLRLKDWEHSIALRNIRLAKG [S20R]	3.23
VTEDLRLKDWEHSIALRNITLAKG [S20T]	2.86
VTEDLRLKDWEHSIALRNIVLAKG [S20V]	3.56
VTEDLRLKDWEHSIALRNIWLAKG [S20W]	3.15
VTEDLRLKDWEHSIALRNIYLAKG [S20Y]	2.56
VTEDLRLKDWEHSIALRNISAAKG [L21A]	4.15
VTEDLRLKDWEHSIALRNISCAKG [L21C]	3.84
VTEDLRLKDWEHSIALRNISDAKG [L21D]	4.8
VTEDLRLKDWEHSIALRNISEAKG [L21E]	4.4

Variant	protein stability index
VTEDLRLKDWEHSIALRNISFAKG [L21F]	3.48
VTEDLRLKDWEHSIALRNISGAKG [L21G]	4.03
VTEDLRLKDWEHSIALRNISHAKG [L21H]	4.07
VTEDLRLKDWEHSIALRNISIAKG [L21I]	3.19
VTEDLRLKDWEHSIALRNISKAKG [L21K]	4.37
VTEDLRLKDWEHSIALRNISMAKG [L21M]	3.68
VTEDLRLKDWEHSIALRNISNAKG [L21N]	4.08
VTEDLRLKDWEHSIALRNISPAKG [L21P]	4.11
VTEDLRLKDWEHSIALRNISQAKG [L21Q]	3.65
VTEDLRLKDWEHSIALRNISRAKG [L21R]	3.56
VTEDLRLKDWEHSIALRNISSAKG [L21S]	3.85
VTEDLRLKDWEHSIALRNISTAKG [L21T]	4.23
VTEDLRLKDWEHSIALRNISVAKG [L21V]	3.5
VTEDLRLKDWEHSIALRNISWAKG [L21W]	3.08
VTEDLRLKDWEHSIALRNISYAKG [L21Y]	3.48
VTEDLRLKDWEHSIALRNISLCKG [A22C]	3.37
VTEDLRLKDWEHSIALRNISLDKG [A22D]	3.73
VTEDLRLKDWEHSIALRNISLEKG [A22E]	3.69
VTEDLRLKDWEHSIALRNISLFKG [A22F]	3.06
VTEDLRLKDWEHSIALRNISLGKG [A22G]	3.14
VTEDLRLKDWEHSIALRNISLHKG [A22H]	3.9
VTEDLRLKDWEHSIALRNISLIKG [A22I]	3.37
VTEDLRLKDWEHSIALRNISLKKG [A22K]	3.95
VTEDLRLKDWEHSIALRNISLLKG [A22L]	2.67

Variant	protein stability index
VTEDLRLKDWEHSIALRNISLMKG [A22M]	2.82
VTEDLRLKDWEHSIALRNISLNKG [A22N]	3.61
VTEDLRLKDWEHSIALRNISLPKG [A22P]	3.77
VTEDLRLKDWEHSIALRNISLQKG [A22Q]	3.51
VTEDLRLKDWEHSIALRNISLRKG [A22R]	3.33
VTEDLRLKDWEHSIALRNISLSKG [A22S]	3.24
VTEDLRLKDWEHSIALRNISLTKG [A22T]	2.97
VTEDLRLKDWEHSIALRNISLVKG [A22V]	3.23
VTEDLRLKDWEHSIALRNISLWKG [A22W]	2.16
VTEDLRLKDWEHSIALRNISLYKG [A22Y]	2.23
VTEDLRLKDWEHSIALRNISLAAG [K23A]	3.04
VTEDLRLKDWEHSIALRNISLACG [K23C]	3.1
VTEDLRLKDWEHSIALRNISLADG [K23D]	3.84
VTEDLRLKDWEHSIALRNISLAEG [K23E]	3.93
VTEDLRLKDWEHSIALRNISLAFG [K23F]	2.35
VTEDLRLKDWEHSIALRNISLAGG [K23G]	3.14
VTEDLRLKDWEHSIALRNISLAHG [K23H]	3.29
VTEDLRLKDWEHSIALRNISLAIG [K23I]	2.36
VTEDLRLKDWEHSIALRNISLALG [K23L]	2.95
VTEDLRLKDWEHSIALRNISLAMG [K23M]	2.16
